Source: article PMC11946224

How the values were obtained:
[1] = target: recombinant cylindracin (C-terminal cysteine-rich domain of cylindracin) (Cyclocybe cylindracea); experiment: cross-linking; rCYL raised from 0.25 mg/mL (39 uM) to 2.0 mg/mL (312 uM) with BS(PEG)9 at 500 uM; SDS-PAGE, Coomassie staining
[2] = target: recombinant cylindracin (C-terminal cysteine-rich domain of cylindracin) (Cyclocybe cylindracea); experiment: as above; remark: listed apart in the source
[3] = target: recombinant cylindracin (C-terminal cysteine-rich domain of cylindracin) (Cyclocybe cylindracea); experiment: cross-linking; rCYL at 0.25 mg/mL (39 uM) with 0.005-5 mM BS(PEG)9 in 20 mM sodium phosphate pH 7.2, 150 mM NaCl, 25 C, 30 min; SDS-PAGE, Coomassie staining

stoichiometry N [1]: 2
stoichiometry N [2]: 4
stoichiometry N [3]: 2
Substance: recombinant cylindracin (C-terminal cysteine-rich domain of cylindracin) (domain or fragment)
